# Results reported in the supplement of paper PMC12455559.
# ± gives the standard deviation of the averaged measurements.
# Columns and labels:
# [1] = PET hydrolysis, aromatic products released after 48 h (umol product/mg enzyme); higher = more PET depolymerization activity
# How it was run: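 The measure of PET hydrolysis activity is aromatic product released into the supernatant, given per mg enzyme. Nickel-purified, SUMO-cleaved enzyme without tag was added at 5 μg (50 μL) to 3.5 mg amorphous PET film or crystalline PET powder in 450 μL of citrate, phosphate or glycine buffer spanning pH 4.5 to 8.5. After 48 h at 40 or 60 °C in sealed plates without shaking, absorbance at 260 and 280 nm was taken against buffer blanks.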
# [2] = purified protein yield per well (BCA); higher = higher soluble expression
# How it was run: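 Purified protein yield per well is reported, as measured by the Pierce Rapid Gold BCA kit. The enzymes came from E. coli C41(DE3) autoinduction cultures of 2 mL with 100 µg/mL kanamycin, held at 37 °C for 2 h and 18 °C for 40 h, then lysed and purified on Ni-charged magnetic beads with SUMO protease release. The detection threshold is 25 ug (0.1 mg/mL), and lower values are under it.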
# [3] = melting temperature (DSF); higher = more thermostable
# How it was run: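 Candidate enzymes were expressed in E. coli C41(DE3), purified on nickel beads and released by SUMO protease cleavage. For differential scanning fluorimetry, 45 μL enzyme (0 to 0.3 mg/mL) was mixed with 5 μL 5X Sypro Orange in sealed PCR plates on a Bio-Rad CFX96 instrument. Fluorescence was read from 25 °C in steps of 0.3 °C per cycle (ramp 0.3 °C/s) for 250 cycles. The read-out is melting temperature.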
# [4] = substrate: aFilm, 40 °C, pH 4.5
# [5] = substrate: aFilm, 40 °C, pH 5.5
# [6] = substrate: aFilm, 40 °C, pH 6.5
# [7] = substrate: aFilm, 40 °C, pH 7.5
# [8] = substrate: aFilm, 60 °C, pH 4.5
# [9] = substrate: aFilm, 60 °C, pH 5.5
# [10] = substrate: aFilm, 60 °C, pH 6.5
# [11] = substrate: aFilm, 60 °C, pH 7.5
# [12] = substrate: cryPow, 40 °C, pH 4.5
# [13] = substrate: cryPow, 40 °C, pH 5.5
# [14] = substrate: cryPow, 40 °C, pH 6.5
# [15] = substrate: cryPow, 40 °C, pH 7.5
# [16] = substrate: cryPow, 60 °C, pH 4.5
# [17] = substrate: cryPow, 60 °C, pH 5.5
# [18] = substrate: cryPow, 60 °C, pH 6.5
# [19] = substrate: cryPow, 60 °C, pH 7.5
Sequence,"PET hydrolysis [1, 4]","PET hydrolysis [1, 5]","PET hydrolysis [1, 6]","PET hydrolysis [1, 7]","PET hydrolysis [1, 8]","PET hydrolysis [1, 9]","PET hydrolysis [1, 10]","PET hydrolysis [1, 11]","PET hydrolysis [1, 12]","PET hydrolysis [1, 13]","PET hydrolysis [1, 14]","PET hydrolysis [1, 15]","PET hydrolysis [1, 16]","PET hydrolysis [1, 17]","PET hydrolysis [1, 18]","PET hydrolysis [1, 19]",purified protein yield per well [2] [µg],melting temperature [3] [C]
ADNPYQRGPNPTAASIAATTGPFAIASVSVARGNGFGGGVIYYPTDTSQGTFGAIAISPGLNGTWPGIAWLGPRLASQGFVVFGIETNNLNDSPTSRGTQLLAALDYLTQRSSVRTRVDATRLAVAGHSMGGGGALDAALRRPSLQAAIGNAPYLPSGNLSTDRVPTLIYAMQNDTLVPPSRLTTMYNTIPATTERGYIQITGAGHNYIGQPSTNLARTMIPWFKIFIDNDTRFSQFLCPLSNMSGISQYRNSCPLI [ESM159],< 3,< 3,< 3,2 ± 2.8,< 3,< 3,< 3,< 3,< 3,15.5 ± 6.4,46.5 ± 3.5,74.5 ± 7.8,< 3,< 3,6.5 ± 2.1,13 ± 1.4,371,57.4
ADNPYQRGPDPTRTSVTAVNGPFANTSVSVPTGYGFNGGRIYYPTDTSQGTFGAIAISPGYTALFSAELAWMGPWLASHGFVVIGIETNSRNDFDTARGTQLLAALDYLTQQSPVRDRVDPTRLAVAGHSMGGGGALSAAIRRSSLKAVVGIAPYSPSSNLANDRVPTMIFSGQADTVVTPSYATGLYNSLPSTTESVYLEVAGADHGFMVGRSNPVMVRTMLPFVKMFVDNDARYSQFLCPLLDNSGVVTYRSTCPLLPSTPTTPTPTPTDPTTPTPTPTVPPGSASQIVGTQSGRCIDVPNASRTNGTRVQLYDCNRQTNQAWTYTSGKQLQVYGNMCLDAAGTGNGAAVQIYSCHSQTNQQWNVNSNGTISNVQSGRCLDVWSTANGAQIQLYDCHSQTNQQFRVTPLA [ESM062],,,,,,,,,11,27,33,24,< 3,4,4,< 3,135,62.5
ADNPYQRGPNPTVASVAATRGTFATAQTSVPAGNGFGGGVIYYPTDTSQGTFGGVAIVPGYSALFANEEAWMGPWLASFGFVVIGIETNSRTDSADARGTQLLAALDYLTQRSSVRDRVDPNRLSVVGHSAGGAGVLSAILRRPSLKAGIGLAPGSPVGDYSLSNDRVPTMFISGQRDTTVTQSYLNGLYTTIPASTPSAWVEITGVDHLFATRANTTEMRVLIPWLKIWVDNDTRYTQFLCPLADSTGISMYRNKCPYVPPGGSSPSPSPSPSSSPSRFPSPSPSPSPSQSPSQSPSASPSPPPPGACVAEYRTVNSWPGGYQGEVTVTAGGSAVNGWTVRWTLGSGQTITQLWNGTLSTSGSAVTVKNASFNGSIPASGSATFGFLATGTPSTPSLTCTSP [ESM015],,,,,,,,,< 3,< 3,< 3,< 3,< 3,< 3,< 3,< 3,540,60.7
ADNPYERGPNPTESLIEAARGPFATSQTTVSSLSVTGFGGGVIYYPTDTSQGTFGGIAISPGYTAAWSSLDWLGPRLASHGFVVIGIETNTRLDQPASRGDQLLAALDYLTQRSSVRSRVDATRLAVAGHSMGGGGSLEAAKDRTSLKAAIPLAPWNTDKTWPEVRTPTLIIGGESDTVAPVSSHSIPFYTSLTSAREKAYLELDNASHFFPQTSNTTMAKYMISWMKRYIDNDTRYEQFLCPGPSTGLLSGISDWRQTCPGS [TEP073],,,,,,,,,< 3,< 3,< 3,< 3,< 3,< 3,< 3,< 3,81.6,46.9
ATNPYERGPAPTGTSVAADRGPFATAQLTVAKGNGFGGGVVYYPTDTSQGTFGAIAIAPGYGTEWRWYAWLGPRLASFGFVVLGIETNSLDDYADARGAQLLSALDWLVDSSPVRDRVDRTRLAVGGHSMGGGGALTAAIQRPSLMTAIGMAPYVPDGILRTIKIPTVLFGGQTDTTVTPSYLASAYATIPATVQRAYPEIANEGHGFAAGGGGGNSGAFARTMMIWMKVFIDKDTRYTGFLCPTLSNMSGISKYQASCPLGPTSGPSQSPSSSPSSTPSSSPSSTPSVSPSSTPSASPPGGPCRATYRTVNSWSGGYQGEVTVTAGGSAVNGWTVKWALSGGQSVTQVWNGTLSASGSNVSVSNASYNGSLGAGASTTFGFLANGTPSTPSPTCTSP [ESM021],< 3,< 3,< 3,< 3,< 3,< 3,< 3,< 3,< 3,4.5 ± 0.71,9,9 ± 1.4,< 3,< 3,< 3,< 3,275,68.8
MRPGRVCPDSCGCRPSSRRKDATIVQQLRNETIGSPSPHRAPRRFRPRLVRAGLAALLAAGGLFTAQSGSAGAAQNPYERGPAPTVSSIEAPRGPYAVSETRVSSLGVTGFGGGTLYYPTTTRDGTFGAVAISPGYGGTQSSISWLGPRLASQGFVVFTIDTLSTLDQPAGRGGQLLAALDYLTQRSSVRDRVDSGRLGVMGHSMGGGGSLEAAKSRPALQAAIPLTGWNLDKTWQELRTPTLVVGADGDTIAPVSSHSEPFYESLAGSLDKAYLELNGASHFTPNSSNTTIAKYSVSWLKRFIDNDLRYEQFLCPLPRPGATIEEYRGNCPHTS [TEP099],,,,,,,,,< 3,< 3,< 3,< 3,< 3,< 3,< 3,< 3,68.5,50.2
